{"source": "patent US5459256A", "about": "“Lipophilic, aminohydrolase-activated prodrugs” (priority 1991, dated 1995)", "molecules": {"B1": {"name": "ADA: adenosine deaminase (adenosine aminohydrolase, EC 3.5.4.4) from calf intestinal mucosa (protein, UniProt P56658 2-363, looked up)", "Adenosine deaminase": "AQTPAFNKPKVELHVHLDGAIKPETILYYGRKRGIALPADTPEELQNIIGMDKPLSLPEFLAKFDYYMPAIAGCREAVKRIAYEFVEMKAKDGVVYVEVRYSPHLLANSKVEPIPWNQAEGDLTPDEVVSLVNQGLQEGERDFGVKVRSILCCMRHQPSWSSEVVELCKKYREQTVVAIDLAGDETIEGSSLFPGHVKAYAEAVKSGVHRTVHAGEVGSANVVKEAVDTLKTERLGHGYHTLEDATLYNRLRQENMHFEVCPWSSYLTGAWKPDTEHPVVRFKNDQVNYSLNTDDPLIFKSTLDTDYQMTKNEMGFTEEEFKRLNINAAKSSFLPEDEKKELLDLLYKAYGMPSPASAEQCL"}}, "key": {"[1]": {"system": "HIV-1/IIIB (CD4^+ ATH8 cells)", "test": "HIV cytopathic effect inhibition assay in ATH8 cells (% protection)", "type": "cell-based", "settings": "additive alone, no test compound", "protocol": "(§1) HIV Cytopathic Effect Inhibition Assay.\nThe HIV cytopathic effect inhibition assay was performed as previously described. (Mitsuya, H. & Broder, S. Proc. Nat. Acad. Sci. USA 1986, 83, 1911) Briefly, 200,000 target CD4^+ ATH8 cells were exposed to cell-free HIV-1/IIIB at a dose of 43 (or 1087 for compound 1g) TCID50 (50% tissue culture infectious dose) for 1 h, resuspended in 2 ml of fresh culture media containing interleukin 2, and cultured at 37° C. with or without test compounds in 5% CO2 -containing humidified air. On day 8 in culture, the viable cells were counted by using the dye exclusion method. All compounds, including inactives, were evaluated a minimum of two times in separate experiments. […] The % protection against the virus was determined by the following formula: 100 times [(the number of viable cells exposed to HIV-1 and cultured in the presence of the compound minus the number of viable cells exposed to HIV-1 and cultured in the absence of compound) divided by (the number of viable cells cultured alone minus the number of viable cells exposed to HIV-1 and cultured in the absence of the compound)]. The % toxicity of a compound on the target cells was determined by the following formula: 100 times [1 minus (the number of total viable cells cultured in the presence of the compound divided by the number of total viable cells cultured alone)]. […]"}, "CD4^+ ATH8 cells": {"system": "CD4^+ ATH8 cells", "test": "Toxicity on ATH8 target cells (% toxicity, dye exclusion)", "type": "cell-based", "settings": "additive alone, no test compound", "protocol": "as §1\nThe HIV cytopathic effect inhibition assay was performed as previously described. […] On day 8 in culture, the viable cells were counted by using the dye exclusion method. All compounds, including inactives, were evaluated a minimum of two times in separate experiments. Data reported in Table II are from representative tests. The % protection against the virus was determined by the following formula: 100 times [(the number of viable cells exposed to HIV-1 and cultured in the presence of the compound minus the number of viable cells exposed to HIV-1 and cultured in the absence of compound) divided by (the number of viable cells cultured alone minus the number of viable cells exposed to HIV-1 and cultured in the absence of the compound)]. The % toxicity of a compound on the target cells was determined by the following formula: 100 times [1 minus (the number of total viable cells cultured in the presence of the compound divided by the number of total viable cells cultured alone)]. Calculated percentages equal to or less than zero are expressed as 0%."}}}
{"molecule": "B1", "values": [{"measurement": "protection by additive alone (in words)", "setting": "[1]", "value": "neither influenced the viability nor protected infected ATH8 cells"}, {"measurement": "toxicity / viability effect of additive alone (in words)", "setting": "CD4^+ ATH8 cells", "value": "neither influenced the viability"}]}
